Sequences and labels used below:
B1: TPR t1 (parent)
chain: GACCAAUCUGCCCUCAGAGCUCGAGAACAUCUUCGGAUGCAGAGGAGGCAGGCUUCGGUGGCGCGAUAGCGCCAACGUCCUCAACCUCCAAUGCAUCCCACCACAUGAUGAUGCCUGAAGAGCCUUGGUUUUUUG

This note sets out measurements from the RNAGym collection of RNA variant scans (doi:10.1073/pnas.2313332121).

The series covers variants of B1. Briefly: polymerase ribozyme fitness, log enrichment relative to wild type (log ratio); higher = more active; in vitro selection for triplet polymerase activity. The procedure, abridged:
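A heterodimeric triplet polymerase ribozyme had each of its subunits mutagenized by PCR into a library, which was transcribed. One round of in vitro selection, done in triplicate, annealed each library with a biotinylated primer, its partner subunit and triplets, then incubated it frozen at −7 °C before gel excision of extended constructs, streptavidin-bead capture and RT-PCR. Fitness is the logarithm of genotype enrichment relative to wild-type enrichment, based on Illumina sequencing of inputs and outputs and inverse-variance-weighted replicate averages. A base-2 logarithm is used, and genotypes were kept only with ≥10 input reads and ≥1 read per output.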
On to GACCAAUCUGCCCUCAGAGCUCGACAACAUCUUCGGAUGCAGAGGUGGCAGGCUUCGGUGCAGCGAUAGCGCCAACGUCCUCAACCUCCAAUGCAUCCCACCACAUGAUGAUACCUGAAGAGCAUUGGUUUUUUG, for which the “polymerase ribozyme fitness (log ratio)” value was -8.51.

Take GACCAAUCUGCCCUCAGAGCUCGAAAACAUCUACGGAUGCAGAGGAGGCAGGCUUCGGUGACGCGAUAGCGCCAACUUCCUCAACCUCCAAUGCAUCCCACCACAUGAUGAUGCAUGAAGAGCCUUGGUUUUUUG: the “polymerase ribozyme fitness (log ratio)” value was -6.46.

GACCAAUCUGCCCUCAGAGCUCGACAACAUCUUCGGAUGCAGAGGAUGCAGGCUUCGGUGGCGGGAUAGCGCCAACGUCCUCAACCUCCAAUGCAUCCCACCACAUGAAGAUGCCUGAAGAGCCUUGGUUUUCUG: the “polymerase ribozyme fitness (log ratio)” value is -6.25.

In the case of GACCAAUCUGCCCUCAGAGCUCGAAAACAUCUUCGGAUGCAGAUGAGGCAGUCUUCGGUGGUGCGAUAGCGCCAACGUCCUCAACCUCCAAUGCAUCCCACCACGUGAUGAAGCCUGAAGAGCCUUGGUUUUUUG, the “polymerase ribozyme fitness (log ratio)” value was -7.09.

Consider GACCAAUCUGCCCUCAGAGCUCGACAAAAUCUUCGGAUGCAGAGGAGUCAGGCUUCGGUGGCGCGAUAGCUCGAACGUCCUCAACCUCCAAUGCAUCCCACCACAUGAUGAUUCCUGAAGAGCCUUGGUUUUUUG, for which the “polymerase ribozyme fitness (log ratio)” value is -6.43.

As to GACCAAUCUGCCCUCAGAGCUCGACAACAUCUUCGGAUGCAGAGGAGGCAGGCUUCGGUGGCGCGAUAGCACAAACGUCCUCAACCUCAAAUGCAUCCCACCACAUGAUAAUGCCUGAAGAGCCUUGGUUUUUUG, the “polymerase ribozyme fitness (log ratio)” value is -6.79.

On to GACCAAUCUGCCCUCAGAGCUCGACAACAUCUUCGGAUGCAGAGGAGGCAGGCUUCGGUGGCGCGAUAGCGCCAACGUCCUCAACCUCCAAUGCAUCCCACCACAUGAUGUUGCCUGAAGAGCCUUGGUUUUUUG, for which the “polymerase ribozyme fitness (log ratio)” value was -6.92.

With GACCAAUCUGCCCUCAGAGCUCGACAACAUCUUCGGAUGCAUAUGAGGCAGGCUUCGGUGGCGCGAUAGCGCCAACGUCCUCAACCUCCAAUGCAUCCCACCAUAUGAUGAUGCCUGAAGAGCUUUGGUUUUUUG, the “polymerase ribozyme fitness (log ratio)” value was -7.89.

For GACCAAUCUGCCCUCAGAGCUCGAAAACAUCUUCGGAUGCAGAGGAUGCAGGCUUCGGUGGCGCGAUAGCGCCAACGUCCUCAACCUCCAAUGCAUCCCUCCACAUGAUUAAGCCUGAAGAGCCUUGGUUUUUUG, the “polymerase ribozyme fitness (log ratio)” value is -6.61.

For the variant GACCAAUCUGCCCUCAGAGCUCGACAACAUCUUCGGAUGCAGAGGAGGCAGGCUUCGAUGGCGAGAUAGCGCCAACGUCCUCCACCUCCAAUGCAUCCCACCACAUGAUCAUGCCUGAAGAGCCUUGGUUUUUUG, the “polymerase ribozyme fitness (log ratio)” value was -6.43.

With GACCAAUCUGCCCUCAGAGCUCGAAAACAUCUUCGGAUGCAGAGGAGGCAGGCUUCGGUGGCGCGAUAGCGCCAACGUCCUCAACCUCCAAUGCAUCCCACCACAAGAUGAUGCCUGAAGAGCCUUGGUUUUUUG, the “polymerase ribozyme fitness (log ratio)” value was -4.81.

For the variant GACCAAUCUGCCCUCAGAGCUCGACAACAUCUUCGGAUGCAGAGGAAGCAGGCUUCGGUGGCGCGAUAGCGCCAACGUCCUCAACCUCCAAUGCAUCCCACCUCAUGAUGAUGCGUGAAGAGCCUUGGUUUUUUG, the “polymerase ribozyme fitness (log ratio)” value is -7.4.

With GACCAAUCUGCCCUCAGAGCUCGAAAACAUCUUCGGAUGCAGAGGAGGCAGGCUUCGGUGGCGCGAUAGCACCAACGUCCUCAACCUCCAAUGCAUCCCACCACAUGAUGACGCCUGAAGAGCCUUGGUUUUUUG, the “polymerase ribozyme fitness (log ratio)” value was -6.36.

For GACCAAUCUGCCCUCAGAGCUCGACAACAUCUUCGGAUGCAGAGGAGGCAGGCUUCGGUGGCGCGAUAGUGCGAACGUCCUCAACCUCCAAUGCAUCCCACCACAUGAUGAUGCCUGAAGGGCCUUGGUUUUGUG, the “polymerase ribozyme fitness (log ratio)” value was -7.65.

For the variant GACCAAUCUGCCCUCAGAGCUCGACAACAUCUUCGGAUGCAGAGGAGGCAGGCUUCGGUGGCGCGAUAUCGCCAACGUCCUCAACCUCCAAUGCAUCCCACCACAUGAUGUUGCCUGAAGAGCCUUGGUUUUUUG, the “polymerase ribozyme fitness (log ratio)” value is -7.

Regarding GACCAAUCUGCCCUCAGAGCUCGAAAACAUCUUCGGAUGCAGAGGAAGCAGGCUUCGGUGGCGCGAUAGCGCCAACGUCCUCAACCUCCAAUGCAUCCCGCCACAUGAUGAGGCCUGAAGAGUCUUGGUUUUUUG, the “polymerase ribozyme fitness (log ratio)” value was -6.98.

For the variant GACCAAUCUGCCCUCAGAGCUCGACAACAUCUGUGGAUGCAGAGGUGGCAGGCUUCGGUGGCGCGAUAGAGCCAACGUCCUCAACCUCCAAUGCAUCCCACCACAUGAUGAUGCCUGAAGAGCCUUGGUUUUUUG, the “polymerase ribozyme fitness (log ratio)” value is -8.69.

Consider GACCAAUCUGCCCUCAGAGCUCGAAAACAUCUUCGGAUGCAGAGGAGGCAGGCUUCGGUGGCGCGAUAGCGCCAACGUCAUCAACCUCCAAAGCAUCCCACCACAUGAUGAAGCCUGAAGAGCCUUGGUUUUUUG, for which the “polymerase ribozyme fitness (log ratio)” value was -6.66.

With GACCAAUCUGCCCUCAGAGCUCGAUGACAUCUUCGGAUGCAGAGGUGGCAGGCUUCGGUGGCGCGAUAGCGCCAACGUCCUCAACCUCCAAUGCAUCCCACCACAUGAUGAUGCCUGAAGAGCCUUGGUUUUUUG, the “polymerase ribozyme fitness (log ratio)” value was -3.61.

With GACCAAUCUGCCCUCAGAGCUCGAAAACAUCUUCGGAUGCAGAGGAGGCAGGCUUCGGUGGCGCGAUAGCUCCAACGUCCUCAACCUCCAAUGCAUCCCACCACAUGAUGAUGCCUGAAGAGCCUUGGUUUUUUG, the “polymerase ribozyme fitness (log ratio)” value is -6.24.

For GACCAAUCUGCCCUCAGAGCUCGACAACAUCUUCGGAUGCAGAGGAGGCAGGCUUCGGUGGCGCGAUAGCGCCAACGUCCUCAACCUCCAAUGCAUCCCACCACAUGAUGAUGCCUGAAGAGGCUUGGUUUUUUG, the “polymerase ribozyme fitness (log ratio)” value is -5.25.
